Among the data in patent US20190330374A1 are fold better binding than Anti-OX40 #1-IgG (ratio of Kd, IgG to IgM) and fold better binding than Anti-OX40 #1-IgG (ratio of Bmax) values, retold here.

Experiment [1] addresses OX40 on activated T cells (PBMCs activated with Human T cell Activator Dynabeads) (human) (UniProt P43489). The experiment can be described thus: flow cytometry on activated PBMCs, CD8+ T cells with low OX40.
For experiment [2] the target is unchanged. The experiment can be described thus: flow cytometry on activated PBMCs, CD4+ T cells with high OX40.
Experiment [3] concerns the target OX40-Fc (R&D) (human) (UniProt P43489). The experiment in a line: ELISA, plate coated with 0.4 ng/mL OX40-Fc, anti-human kappa-HRP detection. (In an ELISA, binding on a coated surface is turned into a signal by an enzyme label.)
Experiment [4] has the same target. The experiment can be described thus: ELISA, plate coated with 1.6 ng/mL OX40-Fc, anti-human kappa-HRP detection.

OX40-Fc (R&D) (human), sequence (P43489 29-216 limits assumed): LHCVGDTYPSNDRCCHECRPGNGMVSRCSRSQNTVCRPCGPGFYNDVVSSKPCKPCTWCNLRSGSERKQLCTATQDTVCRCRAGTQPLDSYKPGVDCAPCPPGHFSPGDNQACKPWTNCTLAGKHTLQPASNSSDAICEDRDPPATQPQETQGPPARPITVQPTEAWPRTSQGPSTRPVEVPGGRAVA
OX40 on activated T cells (PBMCs activated with Human T cell Activator Dynabeads) (human), sequence (P43489 29-277): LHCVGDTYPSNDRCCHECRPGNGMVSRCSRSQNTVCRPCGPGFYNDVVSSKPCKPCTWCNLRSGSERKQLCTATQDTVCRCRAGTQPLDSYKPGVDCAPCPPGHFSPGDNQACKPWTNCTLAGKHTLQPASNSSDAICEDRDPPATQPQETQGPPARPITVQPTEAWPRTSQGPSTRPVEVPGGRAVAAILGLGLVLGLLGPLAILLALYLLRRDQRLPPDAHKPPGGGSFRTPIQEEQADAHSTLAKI

B1: Anti-OX40 #1-IgM (antibody, V domains shown)
VH: QVQLQESGPGLVKPSQTLSLTCAVYGGSFSSGYWNWIRKHPGKGLEYIGYISYNGITYHNPSLKSRITINRDTSKNQYSLQLNSVTPEDTAVYYCARYKYDYDGGHAMDYWGQGTLVTVSS
VL: DIQMTQSPSSLSASVGDRVTITCRASQDISNYLNWYQQKPGKAPKLLIYYTSKLHSGVPSRFSGSGSGTDYTLTISSLQPEDFATYYCQQGSALPWTFGQGTKVEIK
Regarding B1, the figures for the fold better binding than Anti-OX40 #1-IgG (ratio of Kd, IgG to IgM) in experiment [1] and in experiment [2] were 25 fold and 6 fold, respectively. The fold better binding than Anti-OX40 #1-IgG (ratio of Bmax) with OX40-Fc (R&D) (human) [3] was 28 fold; in the experiment with OX40-Fc (R&D) (human) [4], 1.2 fold.
